T1: c-Rel (UniProt Q04864 2-619, limits assumed)
T1 construct: Endogenous protein in HEK-293 lysate, probed by immunoblot
T1 sequence (looked up): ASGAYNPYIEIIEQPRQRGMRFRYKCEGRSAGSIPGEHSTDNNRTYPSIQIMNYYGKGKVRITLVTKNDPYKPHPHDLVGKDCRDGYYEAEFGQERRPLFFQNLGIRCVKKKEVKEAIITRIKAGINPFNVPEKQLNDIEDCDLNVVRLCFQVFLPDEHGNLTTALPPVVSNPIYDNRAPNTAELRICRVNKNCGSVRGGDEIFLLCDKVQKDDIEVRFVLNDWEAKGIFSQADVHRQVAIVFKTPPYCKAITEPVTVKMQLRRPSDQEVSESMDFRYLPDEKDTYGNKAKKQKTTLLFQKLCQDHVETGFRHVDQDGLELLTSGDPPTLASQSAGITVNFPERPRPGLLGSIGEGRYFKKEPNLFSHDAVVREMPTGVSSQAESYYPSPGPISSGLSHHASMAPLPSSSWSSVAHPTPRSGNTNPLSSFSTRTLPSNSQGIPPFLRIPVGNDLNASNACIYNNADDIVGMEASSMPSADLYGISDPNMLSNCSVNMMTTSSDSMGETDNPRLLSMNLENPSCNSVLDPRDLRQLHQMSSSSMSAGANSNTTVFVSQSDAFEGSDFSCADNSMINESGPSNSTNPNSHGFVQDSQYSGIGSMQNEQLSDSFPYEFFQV

T2: Rel-B (UniProt Q01201 1-579)
T2 construct: Endogenous protein in HEK-293 lysate, probed by immunoblot
T2 sequence (looked up): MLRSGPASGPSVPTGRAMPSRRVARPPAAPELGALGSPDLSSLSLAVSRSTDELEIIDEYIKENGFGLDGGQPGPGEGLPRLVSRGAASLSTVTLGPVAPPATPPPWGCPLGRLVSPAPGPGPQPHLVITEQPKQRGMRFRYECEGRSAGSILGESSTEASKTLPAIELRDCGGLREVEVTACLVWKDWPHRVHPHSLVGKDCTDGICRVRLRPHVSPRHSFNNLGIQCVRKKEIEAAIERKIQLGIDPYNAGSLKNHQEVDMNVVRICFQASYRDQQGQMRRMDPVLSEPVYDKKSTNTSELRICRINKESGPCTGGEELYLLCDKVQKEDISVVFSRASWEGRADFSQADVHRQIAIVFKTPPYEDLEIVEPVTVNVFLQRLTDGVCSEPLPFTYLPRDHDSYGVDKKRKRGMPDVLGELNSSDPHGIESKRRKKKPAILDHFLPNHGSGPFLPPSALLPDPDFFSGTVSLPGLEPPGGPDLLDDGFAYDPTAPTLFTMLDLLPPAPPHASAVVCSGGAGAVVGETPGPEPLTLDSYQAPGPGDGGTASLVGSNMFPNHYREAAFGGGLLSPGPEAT

B1: One-Strep-IRF5 fusion protein (other)
chain: MNQSIPVAPTPPRRVRLKPWLVAQVNSCQYPGLQWVNGEKKLFCIPWRHATRHGPSQDGDNTIFKAWAKETGKYTEGVDEADPAKWKANLRCALNKSRDFRLIYDGPRDMPPQPYKIYEVCSNGPAPTDSQPPEDYSFGAGEEEEEEEELQRMLPSLSLTEDVKWPPTLQPPTLQPPVVLGPPAPDPSPLAPPPGNPAGFRELLSEVLEPGPLPASLPPAGEQLLPDLLISPHMLPLTDLEIKFQYRGRPPRALTISNPHGCRLFYSQLEATQEQVELFGPISLEQVRFPSPEDIPSDKQRFYTNQLLDVLDRGLILQLQGQDLYAIRLCQCKVFWSGPCASAHDSCPNPIQREVKTKLFSLEHFLNELILFQKGQTNTPPPFEIFFCFGEEWPDRKPREKKLITVQVVPVAARLLLEMFSGELSWSADSIRLQISNPDLKDRMVEQFKELHHIWQSQQRLQPVAQAPPGAGLGVGQGPWPMHPAGMQ
notes: also called full-length IRF5 (One-Strep bait); not shown: One-Strep tag
B2: human IRF5 tagged with one-strep tag (N-terminus) and HA tag (C-terminus) (other)
chain: B1 chain
notes: Expressed in HEK-293-TLR4-CD14/Md2 cells and purified on Strep-Tactin after formaldehyde cross-linking; also called onestrep-IRF5-HA; IRF5 with an N-terminal one-strep tag and a C-terminal HA tag; not shown: N-terminal one-strep tag; C-terminal HA tag
B3: TNF ISRE1 (dsDNA)
DNA 1: AGCTGAAGCCAAGACTGAAACCAGCATTA
DNA 2: AGCTTAATGCTGGTTTCAGTCTTGGCTTC
B4: p52 (other, UniProt Q00653 1-454, looked up)
chain: MESCYNPGLDGIIEYDDFKLNSSIVEPKEPAPETADGPYLVIVEQPKQRGFRFRYGCEGPSHGGLPGASSEKGRKTYPTVKICNYEGPAKIEVDLVTHSDPPRAHAHSLVGKQCSELGICAVSVGPKDMTAQFNNLGVLHVTKKNMMGTMIQKLQRQRLRSRPQGLTEAEQRELEQEAKELKKVMDLSIVRLRFSAFLRASDGSFSLPLKPVISQPIHDSKSPGASNLKISRMDKTAGSVRGGDEVYLLCDKVQKDDIEVRFYEDDENGWQAFGDFSPTDVHKQYAIVFRTPPYHKMKIERPVTVFLQLKRKRGGDVSDSKQFTYYPLVEDKEEVQRKRRKALPTFSQPFGGGSHMGGGSGGAAGGYGGAGGGGSLGFFPSSLAYSPYQSGAGPMGCYPGGGGGAQMAATVPSRDSGEEAAEPSAPSRTPQCEPQAPEMLQRAREYNARLFGLA
notes: Endogenous protein in HEK-293 lysate, probed by immunoblot; also called NF-kB p52
B5: TNF 'ISRE'16 (dsDNA)
DNA 1: AGCTTTTGCTTAGAAAAGAAACATGGTCTC
DNA 2: AGCTGAGACCATGTTTCTTTTCTAAGCAAA
B6: TNF kB4b (dsDNA)
DNA 1: AGCTCTTGCTGGGAAAATCCTGCAG
DNA 2: AGCTGCTGCAGGATTTTCCCAGCAAG
B7: TNF 'ISRE'17 (dsDNA)
DNA 1: AGCTACATAAACAAAGCCCAACAGAATATTCC
DNA 2: AGCTGGAATATTCTGTTGGGCTTTGTTTATGT
B8: TNF kB4a (dsDNA)
DNA 1: AGCTAACTCTGGGAATTCCAATCCTT
DNA 2: AGCTAAGGATTGGAATTCCCAGAGTT
B9: p50 (other, UniProt P19838 1-433, looked up)
chain: MAEDDPYLGRPEQMFHLDPSLTHTIFNPEVFQPQMALPTDGPYLQILEQPKQRGFRFRYVCEGPSHGGLPGASSEKNKKSYPQVKICNYVGPAKVIVQLVTNGKNIHLHAHSLVGKHCEDGICTVTAGPKDMVVGFANLGILHVTKKKVFETLEARMTEACIRGYNPGLLVHPDLAYLQAEGGGDRQLGDREKELIRQAALQQTKEMDLSVVRLMFTAFLPDSTGSFTRRLEPVVSDAIYDSKAPNASNLKIVRMDRTAGCVTGGEEIYLLCDKVQKDDIQIRFYEEEENGGVWEGFGDFSPTDVHRQFAIVFKTPKYKDINITKPASVFVQLRRKSDLETSEPKPFLYYPEIKDKEEVQRKRQKLMPNFSDSFGGGSGAGAGGGGMFGSGGGGGGTGSTGPGYSFPHYGFPTYGGITFHPGTTKSNAGMKHG
notes: Endogenous protein in HEK-293 lysate, probed by immunoblot; also called NF-kB p50

What was measured:
[1] = biological target: T3, human RelA containing C-terminal FLAG tag (human, UniProt Q04206 1-551); assay: One-Strep affinity purification from co-transfected HEK293-TLR4-CD14/Md2 cells, Western blot
T3 construct: Expressed in HEK-293 cells; also called RelA-FLAG; Flag-tagged RelA; not shown: C-terminal FLAG tag
T3 sequence (Q04206 other isoform, or with tags, fused parts or gaps): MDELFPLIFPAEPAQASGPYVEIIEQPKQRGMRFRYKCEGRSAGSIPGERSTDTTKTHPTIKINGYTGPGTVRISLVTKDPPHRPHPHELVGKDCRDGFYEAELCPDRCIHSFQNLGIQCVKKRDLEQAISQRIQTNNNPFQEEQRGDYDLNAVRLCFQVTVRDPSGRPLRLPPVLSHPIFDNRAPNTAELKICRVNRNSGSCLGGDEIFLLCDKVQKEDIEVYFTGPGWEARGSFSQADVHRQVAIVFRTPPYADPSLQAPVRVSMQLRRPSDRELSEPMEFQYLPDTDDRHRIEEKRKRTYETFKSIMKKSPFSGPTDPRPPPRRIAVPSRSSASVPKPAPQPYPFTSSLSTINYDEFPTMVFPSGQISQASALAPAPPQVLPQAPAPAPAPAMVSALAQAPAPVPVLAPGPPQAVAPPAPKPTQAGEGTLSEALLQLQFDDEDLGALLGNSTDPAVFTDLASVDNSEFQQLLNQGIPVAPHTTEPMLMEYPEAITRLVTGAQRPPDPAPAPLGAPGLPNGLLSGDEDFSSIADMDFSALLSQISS

c-Rel = biological target: T1, c-Rel; assay: Strep-Tactin pull-down of one-strep-IRF5-HA from formaldehyde-cross-linked HEK-293 cells, immunoblot
Description: (§1) HEK-293-TLR4-CD14/Md2 cells were transfected with onestrep-IRF5-HA construct or corresponding empty vector. 24 hrs post transfection cells were fixed with 1% formaldehyde for 10 minutes at room temperature prior to high salt lysis and affinity purification on Strep-Tactin MacroPrep sepharose (IBA). The eluates were de-crosslinked by incubating at 65° C. overnight prior to separation by SDS-PAGE. Exogenous IRF5 and endogenous RelA were detected by immunoblotting with anti-HA-HRP (12013819001, Roche) and anti-RelA (sc-372, Santa-Cruz, US). Alternatively, cells were transfected with RelA-FLAG or BAP-FLAG control protein. 24 hrs post transfection cells were lysed and affinity purified with anti-FLAG M2 sepharose beads (Sigma, UK). Exogenous RelA and endogenous IRF5 were detected by immunoblotting with anti-FLAG-HRP (A8592, Sigma, UK) and anti-IRF5 (Abcam, UK). Interaction of endogenous RelA and IRF5 was detected by overnight incubation of the cell lysates with goat anti-IRF5 antibody (ab2932, Abcam, UK) or no antibody control prior to precipitation with protein G beads. IRF5 was detected by immunoblotting with mouse anti-IRF5 antibody (sc-56714, Santa-Cruz, USA) while RelA—by immunoblotting with anti-RelA. Triton X-100 extracted nuclei and DNase I digestion of chromatin was performed as described previously¹⁷.
(§2) IRF5 with an N-terminal one-strep tag and a C-terminal HA tag was expressed in HEK-293 cells. […] To determine whether this interaction was specific, we immunoblotted for other NE-κB family members: Rel-B, c-Rel, p50 and p52, or a control protein tubulin. […] Furthermore we conducted a complementary experiment, in which human RelA containing C-terminal FLAG tag was expressed in HEK-293 cells and immunoprecipitated in the absence of a cross-linking agents on anti-FLAG sepharose. Specific interactions between ectopically expressed RelA and endogenous IRF5 were observed. No interaction was detected between a control FLAG-tagged bacterial alkaline phosphatase (BAP) and IRF5 (FIG. 24B, compare lanes 1 and 2).

Rel-B = biological target: T2, Rel-B; assay: as above
Description: as §1, §2

IRF5 DBD (aa 1-131) [2] = biological target: T4, IRF5 DBD (aa 1-131) (Homo sapiens, UniProt Q13568 SEQ:1-131); assay: EMSA; 50 ng IRF5 DBD; ISRE 1/2 said to interact in vitro; settings: tags: expressed from pET21d in bacteria; label: 32P (dCTP fill-in); 5' agct overhangs
Description: (§3) (A) Recombinant purified IRF5-DBD was used in an EMSA with radioactive probe corresponding to the selected ISRE and κB sites. PRDI-III (IFN-˜ promoter) was used as a positive control.
(§4) Binding reactions with 50 ng of bacterially expressed and purified IRF5 DBD and EMSA gel separation were performed as previously described⁵.

[3] = biological target: B2; assay: Strep-Tactin pull-down of one-strep-IRF5-HA from formaldehyde-cross-linked HEK-293 cells, immunoblot
Description: as §1, §2

IRF5 DBD (aa 1-131) [4] = biological target: T4, IRF5 DBD (aa 1-131); assay: EMSA; non-consensus ISRE; settings: tags: expressed from pET21d in bacteria; label: 32P (dCTP fill-in); 5' agct overhangs
Description: as §3, §4

IRF5 DBD (aa 1-131) [5] = biological target: T4, IRF5 DBD (aa 1-131); assay: EMSA; 50 ng IRF5 DBD; settings: tags: expressed from pET21d in bacteria; label: 32P (dCTP fill-in); 5' agct overhangs
Description: as §3, §4

Binder: B1
binding result [1]: binds

Binder: B2
binding result (c-Rel): no binding | binding result (Rel-B): no binding

Binder: B3
binding result (IRF5 DBD (aa 1-131) [2]): binds

Binder: B4
binding result [3]: no binding

Binder: B5
binding result (IRF5 DBD (aa 1-131) [4]): no binding

Binder: B6
binding result (IRF5 DBD (aa 1-131) [5]): no binding

Binder: B7
binding result (IRF5 DBD (aa 1-131) [4]): no binding

Binder: B8
binding result (IRF5 DBD (aa 1-131) [5]): no binding

Binder: B9
binding result [3]: no binding

— patent US20140030218A1, “Treatment And Screening” (IMPERIAL INNOVATIONS LIMITED, published 2014)
